T1: APBA1_1, Q02410
T1 sequence (Q02410 651-752, limits assumed, looked up): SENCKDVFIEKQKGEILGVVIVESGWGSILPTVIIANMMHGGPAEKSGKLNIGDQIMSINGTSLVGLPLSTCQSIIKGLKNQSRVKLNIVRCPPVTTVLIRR

T2: APBA2_1, Q99767
T2 sequence (Q99767 563-664, limits assumed, looked up): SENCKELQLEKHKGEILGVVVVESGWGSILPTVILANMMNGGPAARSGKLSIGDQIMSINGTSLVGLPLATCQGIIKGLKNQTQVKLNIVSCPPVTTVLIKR

T3: GRIP1_2, Q9Y3R0
T3 sequence (Q9Y3R0 145-248, limits assumed, looked up): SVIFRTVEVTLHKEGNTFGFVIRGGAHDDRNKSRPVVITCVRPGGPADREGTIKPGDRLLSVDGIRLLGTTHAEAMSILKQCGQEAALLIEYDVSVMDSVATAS

T4: GRIP1_3, Q9Y3R0
T4 sequence (Q9Y3R0 247-346, limits assumed, looked up): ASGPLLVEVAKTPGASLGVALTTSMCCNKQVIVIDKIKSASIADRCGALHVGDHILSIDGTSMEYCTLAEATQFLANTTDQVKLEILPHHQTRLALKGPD

T5: GRIP1_5, Q9Y3R0
T5 sequence (Q9Y3R0 568-668, limits assumed, looked up): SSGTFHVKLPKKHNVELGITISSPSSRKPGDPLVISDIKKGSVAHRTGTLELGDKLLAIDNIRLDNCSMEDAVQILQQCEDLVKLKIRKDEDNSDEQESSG

T6: GRIP1_7, Q9Y3R0
T6 sequence (Q9Y3R0 999-1096, limits assumed, looked up): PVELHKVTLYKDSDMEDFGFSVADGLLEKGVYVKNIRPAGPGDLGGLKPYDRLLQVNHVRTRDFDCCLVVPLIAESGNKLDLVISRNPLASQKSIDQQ

T7: MPP7, Q5T2T1
T7 sequence (Q5T2T1 134-230, limits assumed, looked up): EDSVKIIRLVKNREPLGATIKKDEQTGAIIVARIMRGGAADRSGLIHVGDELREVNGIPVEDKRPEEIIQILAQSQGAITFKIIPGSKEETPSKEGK

T8: SYNJ2BP, P57105
T8 sequence (P57105 8-110, limits assumed, looked up): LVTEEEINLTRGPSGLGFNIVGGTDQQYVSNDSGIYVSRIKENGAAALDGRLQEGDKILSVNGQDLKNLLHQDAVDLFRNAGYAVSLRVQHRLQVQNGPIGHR

T9: TJP3_3, O95049
T9 sequence (O95049 375-456, limits assumed, looked up): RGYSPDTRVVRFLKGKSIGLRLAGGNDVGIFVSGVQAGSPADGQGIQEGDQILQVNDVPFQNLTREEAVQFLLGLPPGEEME


Experiments:
Test in all cases: holdup assay
Set-up in all cases: key: below the threshold = too weak to quantify, mostly under pKd 3.1 to 4
Conditions in all cases: plain residues with an end cap or a label only (N-terminal biotin on a linker: ado-ado)
[1] = biological target: T1, APBA1_1, Q02410
[2] = biological target: T2, APBA2_1, Q99767
[3] = biological target: CASK, O14936
Chain of CASK, O14936 (O14936 487-570): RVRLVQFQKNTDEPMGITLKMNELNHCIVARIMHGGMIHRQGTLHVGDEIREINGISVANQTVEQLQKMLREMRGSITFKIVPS

[4] = biological target: DLG5_1, Q8TDM6
Chain of DLG5_1, Q8TDM6 (Q8TDM6 617-713): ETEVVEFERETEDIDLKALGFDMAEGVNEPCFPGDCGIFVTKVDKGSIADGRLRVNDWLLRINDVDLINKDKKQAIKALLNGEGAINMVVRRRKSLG

[5] = biological target: FRMPD4, Q14CM0
Chain of FRMPD4, Q14CM0 (Q14CM0 67-160): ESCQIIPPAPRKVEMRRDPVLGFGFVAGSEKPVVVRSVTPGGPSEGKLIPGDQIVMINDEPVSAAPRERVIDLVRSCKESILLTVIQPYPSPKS

[6] = biological target: GORASP2, Q9H8Y8
[7] = biological target: GRID2IP_1, A4D2P6
Chain of GRID2IP_1, A4D2P6 (A4D2P6 1-87): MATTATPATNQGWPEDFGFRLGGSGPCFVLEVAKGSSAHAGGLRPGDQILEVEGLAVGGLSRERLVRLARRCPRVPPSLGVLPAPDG

[8] = biological target: T3, GRIP1_2, Q9Y3R0
[9] = biological target: T4, GRIP1_3, Q9Y3R0
[10] = biological target: T5, GRIP1_5, Q9Y3R0
[11] = biological target: T6, GRIP1_7, Q9Y3R0
[12] = biological target: GRIP2_4, Q9C0E4
Chain of GRIP2_4, Q9C0E4 (Q9C0E4 446-548): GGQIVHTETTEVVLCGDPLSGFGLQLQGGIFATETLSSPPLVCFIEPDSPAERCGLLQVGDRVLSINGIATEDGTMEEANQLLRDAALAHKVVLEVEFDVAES

[13] = biological target: GRIP2_5, Q9C0E4
Chain of GRIP2_5, Q9C0E4 (Q9C0E4 544-642): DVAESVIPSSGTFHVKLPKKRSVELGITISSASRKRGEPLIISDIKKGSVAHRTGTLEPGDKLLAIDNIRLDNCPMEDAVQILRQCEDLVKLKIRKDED

[14] = biological target: GRIP2_6, Q9C0E4
Chain of GRIP2_6, Q9C0E4 (Q9C0E4 648-740): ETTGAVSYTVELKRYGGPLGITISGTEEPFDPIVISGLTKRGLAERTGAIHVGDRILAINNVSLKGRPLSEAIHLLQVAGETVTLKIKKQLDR

[15] = biological target: GRIP2_7, Q9C0E4
Chain of GRIP2_7, Q9C0E4 (Q9C0E4 934-1023): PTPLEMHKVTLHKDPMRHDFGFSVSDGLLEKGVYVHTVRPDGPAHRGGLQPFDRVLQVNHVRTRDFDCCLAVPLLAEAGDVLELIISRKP

[16] = biological target: HTRA2, O43464
Chain of HTRA2, O43464 (O43464 355-458): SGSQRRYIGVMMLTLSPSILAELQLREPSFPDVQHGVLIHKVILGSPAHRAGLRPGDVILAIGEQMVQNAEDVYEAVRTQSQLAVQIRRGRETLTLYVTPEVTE

[17] = biological target: Inadl_2, Q8NI35
Chain of Inadl_2, Q8NI35 (Q8NI35 238-335): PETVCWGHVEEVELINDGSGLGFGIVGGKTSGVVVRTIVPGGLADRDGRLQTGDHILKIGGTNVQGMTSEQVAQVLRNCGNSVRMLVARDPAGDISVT

[18] = biological target: LAP2, Q96RT1
Chain of LAP2, Q96RT1 (Q96RT1 other isoform, or with tags, fused parts or gaps): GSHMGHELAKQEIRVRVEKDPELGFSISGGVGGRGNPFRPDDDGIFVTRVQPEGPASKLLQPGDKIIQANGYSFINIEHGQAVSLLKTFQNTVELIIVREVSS

[19] = biological target: MAGI2_2, Q86UL8
Chain of MAGI2_2, Q86UL8 (Q86UL8 410-522): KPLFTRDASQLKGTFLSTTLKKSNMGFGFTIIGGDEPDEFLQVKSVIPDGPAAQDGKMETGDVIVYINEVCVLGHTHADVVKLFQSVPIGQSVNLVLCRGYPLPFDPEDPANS

[20] = biological target: MAGI2_4, Q86UL8
Chain of MAGI2_4, Q86UL8 (Q86UL8 772-865): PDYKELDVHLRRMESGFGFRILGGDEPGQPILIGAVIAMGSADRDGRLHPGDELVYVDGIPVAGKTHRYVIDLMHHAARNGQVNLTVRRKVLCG

[21] = biological target: T7, MPP7, Q5T2T1
[22] = biological target: PDZRN4_1, Q6ZMN7
Chain of PDZRN4_1, Q6ZMN7 (Q6ZMN7 213-318): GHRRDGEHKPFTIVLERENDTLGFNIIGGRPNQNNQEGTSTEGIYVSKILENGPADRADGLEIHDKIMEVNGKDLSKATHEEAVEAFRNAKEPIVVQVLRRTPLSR

[23] = biological target: SCRIB_1, Q14160
Chain of SCRIB_1, Q14160 (Q14160 718-814): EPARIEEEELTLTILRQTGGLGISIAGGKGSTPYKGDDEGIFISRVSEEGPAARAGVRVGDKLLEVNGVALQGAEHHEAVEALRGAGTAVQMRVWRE

[24] = biological target: SCRIB_2, Q14160
Chain of SCRIB_2, Q14160 (Q14160 857-960): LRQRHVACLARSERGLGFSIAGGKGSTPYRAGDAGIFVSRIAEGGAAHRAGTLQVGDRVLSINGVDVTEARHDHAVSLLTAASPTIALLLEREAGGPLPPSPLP

[25] = biological target: SNX27, Q96L92
[26] = biological target: T8, SYNJ2BP, P57105
[27] = biological target: TJP2_1, Q9UDY2
Chain of TJP2_1, Q9UDY2 (Q9UDY2 24-128): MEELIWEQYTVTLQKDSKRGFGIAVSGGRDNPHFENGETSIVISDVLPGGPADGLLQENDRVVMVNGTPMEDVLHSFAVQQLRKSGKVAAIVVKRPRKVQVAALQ

[28] = biological target: T9, TJP3_3, O95049

| Binder | pKd [1] | pKd [2] | pKd [3] | pKd [4] | pKd [5] | pKd [6] | pKd [7] | pKd [8] | pKd [9] | pKd [10] | pKd [11] | pKd [12] | pKd [13] | pKd [14] | pKd [15] | pKd [16] | pKd [17] | pKd [18] | pKd [19] | pKd [20] | further results |
| --- | --- | --- | --- | --- | --- | --- | --- | --- | --- | --- | --- | --- | --- | --- | --- | --- | --- | --- | --- | --- | --- |
| RDYTQSSSSL [GRM5, P41594] | below the threshold | below the threshold | below the threshold | below the threshold | 3.65 | below the threshold | below the threshold | below the threshold | below the threshold | below the threshold | below the threshold | below the threshold | below the threshold | below the threshold | below the threshold | below the threshold | below the threshold | below the threshold | below the threshold | below the threshold | pKd [21]: below the threshold; pKd [22]: below the threshold; pKd [23]: below the threshold; pKd [24]: below the threshold; pKd [25]: 4.25; pKd [26]: 3.82; pKd [27]: below the threshold; pKd [28]: below the threshold |
| KPDKQEEFYA [SDC3, O75056] | below the threshold | below the threshold | below the threshold | below the threshold | 3.49 | below the threshold | below the threshold | below the threshold | below the threshold | below the threshold | below the threshold | below the threshold | below the threshold | below the threshold | below the threshold | below the threshold | below the threshold | below the threshold | below the threshold | below the threshold | pKd [21]: below the threshold; pKd [22]: below the threshold; pKd [23]: below the threshold; pKd [24]: below the threshold; pKd [25]: below the threshold; pKd [26]: below the threshold; pKd [27]: below the threshold; pKd [28]: below the threshold |
| DSEEELPTRL [GRK6, P43250] | below the threshold | below the threshold | below the threshold | below the threshold | 4.39 | below the threshold | below the threshold | below the threshold | below the threshold | below the threshold | below the threshold | below the threshold | below the threshold | below the threshold | below the threshold | below the threshold | below the threshold | below the threshold | 3.54 | 3.47 | pKd [21]: below the threshold; pKd [22]: below the threshold; pKd [23]: 3.53; pKd [24]: below the threshold; pKd [25]: 3.85; pKd [26]: 3.5; pKd [27]: below the threshold; pKd [28]: below the threshold |
| FVFESRKEIL [TBPL1, P62380] | below the threshold | below the threshold | below the threshold | below the threshold | below the threshold | below the threshold | below the threshold | below the threshold | below the threshold | below the threshold | below the threshold | below the threshold | below the threshold | below the threshold | below the threshold | below the threshold | below the threshold | below the threshold | below the threshold | below the threshold | pKd [21]: below the threshold; pKd [22]: below the threshold; pKd [23]: below the threshold; pKd [24]: below the threshold; pKd [25]: below the threshold; pKd [26]: below the threshold; pKd [27]: below the threshold; pKd [28]: below the threshold |
